Assay results as given in patent US20110262477A1 (priority 2008, published 2011).

System: Nc1ncnc2c1ncn2[C@@H]1O[C@H](COP(=O)(O)O)[C@@H](O)[C@H]1O
Test: purified protein, by the assay type
Settings: pH 7.5; 37.0 °C

“Bacillus anthracis BasA (AdsA homolog, NCBI locus tag BAS4031), tagged, affinity purified from E. coli, SEQ ID NO:41 (Bacillus anthracis)” was tested, and the Km was 2.01 nM.
